Results on one molecule are retold here after patent US20210063414A1, “METHODS FOR PREVENTING AND/OR TREATING BONE LOSS CONDITIONS BY MODULATING IRISIN” (Dana-Farber Cancer Institute, Inc., priority 2018, published 2021).

Common to all, as to experiment: Crosslinking/co-immunoprecipitation/mass spectrometry (TMT quantitative proteomics) to identify irisin receptors
What all share (type): binding

In experiment [1] the target is T1, MLO-Y4 cell surface proteins (Mus musculus, UniProt P16675).
T1 construct: endogenous in cells; host or cells: MLO-Y4
T1 sequence (P16675 24-474): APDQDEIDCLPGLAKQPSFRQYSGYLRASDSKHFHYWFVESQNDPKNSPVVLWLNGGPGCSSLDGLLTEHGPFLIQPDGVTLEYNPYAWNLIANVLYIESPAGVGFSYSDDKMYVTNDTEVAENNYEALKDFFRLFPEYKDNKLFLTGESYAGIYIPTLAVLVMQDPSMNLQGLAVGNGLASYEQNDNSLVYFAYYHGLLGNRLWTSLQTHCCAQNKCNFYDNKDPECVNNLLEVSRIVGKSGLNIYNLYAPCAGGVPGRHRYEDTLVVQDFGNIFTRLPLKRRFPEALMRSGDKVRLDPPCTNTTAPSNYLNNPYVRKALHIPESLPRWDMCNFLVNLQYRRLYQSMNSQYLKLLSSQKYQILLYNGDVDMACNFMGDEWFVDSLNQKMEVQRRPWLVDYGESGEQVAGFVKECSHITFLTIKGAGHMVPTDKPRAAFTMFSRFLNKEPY
To be noted: co-precipitated protein Ctsa (PPGB_MOUSE). The method, boiled down:
(§1)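 Mouse MLO-Y4 cells were switched to serum-free FreeStyle medium for 4 h, chilled, then exposed to 10 nM His-tagged irisin (or adipsin as control) for 20 min. Cells were crosslinked with 1.5 mM DTSSP (30 min, ice), and bound proteins were pulled down on Ni-NTA and eluted with 250 mM imidazole. Eluates were separated by SDS-PAGE, trypsin-digested in gel, TMT 6-plex labelled and quantified by MS3-based LC-MS/MS on an Orbitrap Fusion Lumos.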

For experiment [2], the target named is T2, MLO-Y4 cell surface proteins (Mus musculus, UniProt P09671).
T2 construct: endogenous in cells; host or cells: MLO-Y4
T2 sequence (P09671 25-222): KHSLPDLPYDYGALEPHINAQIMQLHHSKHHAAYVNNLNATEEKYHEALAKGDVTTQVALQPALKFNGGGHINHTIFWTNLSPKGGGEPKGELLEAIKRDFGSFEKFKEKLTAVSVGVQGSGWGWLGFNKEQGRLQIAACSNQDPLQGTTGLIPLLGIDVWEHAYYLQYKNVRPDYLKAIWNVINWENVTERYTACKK
Conditions: co-precipitated protein Sod2 (SODM_MOUSE). The method, boiled down: as §1

For experiment [3], the target named is T3, MLO-Y4 cell surface proteins (Mus musculus, UniProt Q8R1I1).
T3 construct: endogenous in cells; host or cells: MLO-Y4
T3 sequence (Q8R1I1 1-64): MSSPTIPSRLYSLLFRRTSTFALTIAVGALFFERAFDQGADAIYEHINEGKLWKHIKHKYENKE
To be noted: co-precipitated protein Uqcr10 (QCR9_MOUSE). The method, boiled down:
as §1

B1: irisin: secreted cleaved form of FNDC5; recombinant human/mouse irisin with C-terminal his tag produced in HEK293 cells (protein)
chain: DSPSAPVNVTVRHLKANSAVVSWDVLEDEVVIGFAISQQKKDVRMLRFIQEVNTTTRSCALWDLEEDTEYIVHVQAISIQGQSPASEPVLFKTPREAEKMASKNKDEVTMKE
modifications: left off: small tags and cut ends
notes: secreted cleaved form of FNDC5; recombinant human/mouse irisin with C-terminal his tag produced in HEK293 cells
On to B1, for which the TMT signal-to-noise ratio in experiment [1] turned out to be 111.377; in experiment [2], 472.133; in experiment [3], 125.477. For the same molecule, the “irisin/adipsin TMT signal-to-noise ratio” value in experiment [1] was 0.311; in experiment [2], 0.458; in experiment [3], 0.516.
